The text below walks through data of patent US20200147231A1 (NATIONAL CANCER CENTER JAPAN, published 2020).

In experiment [1] the target is peptide of the epitope site of 102-10. In words: SPR (Biacore T200), peptide immobilised on CM5, antibody as analyte, multi cycle kinetics.
The target in experiment [2] is T1, insoluble fibrin (fibrinogen from human plasma, immobilised on a plate and treated with thrombin) (human, UniProt P02671 36-629; P02679 27-437).
T1 construct: Plasma-derived material; also called fibrin plate; insoluble fibrin plate
T1 sequence 1: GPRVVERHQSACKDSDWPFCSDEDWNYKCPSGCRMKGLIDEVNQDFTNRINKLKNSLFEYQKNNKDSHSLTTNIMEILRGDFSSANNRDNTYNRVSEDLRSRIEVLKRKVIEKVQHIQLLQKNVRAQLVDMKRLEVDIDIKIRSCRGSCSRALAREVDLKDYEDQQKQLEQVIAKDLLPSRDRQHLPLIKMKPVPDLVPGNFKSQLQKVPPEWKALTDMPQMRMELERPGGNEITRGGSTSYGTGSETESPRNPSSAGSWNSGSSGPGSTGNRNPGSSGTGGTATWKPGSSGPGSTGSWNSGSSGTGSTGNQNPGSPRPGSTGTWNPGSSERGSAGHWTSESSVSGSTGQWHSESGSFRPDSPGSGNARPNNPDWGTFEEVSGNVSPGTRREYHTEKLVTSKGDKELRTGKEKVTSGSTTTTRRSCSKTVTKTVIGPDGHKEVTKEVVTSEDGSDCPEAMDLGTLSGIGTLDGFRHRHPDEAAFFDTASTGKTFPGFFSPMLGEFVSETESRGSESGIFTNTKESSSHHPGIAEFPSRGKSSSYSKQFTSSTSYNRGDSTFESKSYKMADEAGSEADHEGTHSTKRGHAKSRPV
T1 sequence 2: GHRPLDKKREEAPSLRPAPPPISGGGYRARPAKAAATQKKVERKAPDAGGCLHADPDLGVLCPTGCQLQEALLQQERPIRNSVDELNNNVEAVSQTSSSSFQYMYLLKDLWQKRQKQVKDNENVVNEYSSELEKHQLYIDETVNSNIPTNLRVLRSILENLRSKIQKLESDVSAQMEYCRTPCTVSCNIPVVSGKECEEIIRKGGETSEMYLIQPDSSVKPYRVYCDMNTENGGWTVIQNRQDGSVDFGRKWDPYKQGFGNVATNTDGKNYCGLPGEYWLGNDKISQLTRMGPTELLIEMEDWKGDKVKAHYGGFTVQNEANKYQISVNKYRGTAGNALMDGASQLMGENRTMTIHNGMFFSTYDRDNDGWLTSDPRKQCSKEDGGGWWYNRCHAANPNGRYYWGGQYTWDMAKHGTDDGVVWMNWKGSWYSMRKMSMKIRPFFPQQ
T1 sequence 3: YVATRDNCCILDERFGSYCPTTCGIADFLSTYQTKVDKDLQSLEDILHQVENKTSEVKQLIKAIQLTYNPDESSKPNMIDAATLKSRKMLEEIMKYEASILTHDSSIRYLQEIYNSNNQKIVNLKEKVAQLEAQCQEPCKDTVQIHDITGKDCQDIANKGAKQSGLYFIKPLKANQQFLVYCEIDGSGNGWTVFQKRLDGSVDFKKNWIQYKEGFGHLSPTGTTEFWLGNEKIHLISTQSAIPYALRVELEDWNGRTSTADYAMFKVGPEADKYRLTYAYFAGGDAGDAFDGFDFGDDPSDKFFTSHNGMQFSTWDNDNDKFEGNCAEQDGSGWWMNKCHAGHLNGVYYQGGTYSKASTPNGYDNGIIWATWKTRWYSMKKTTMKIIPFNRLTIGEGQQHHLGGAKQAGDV
Put plainly: ELISA on the human fibrin plate (coated fibrinogen treated with thrombin), HRP secondary antibody, absorbance at 450 nm.
Method: In advance of the ELISA, an antigen-immobilized plate was prepared. Fibrinogen from human plasma (SIGMA) was dissolved in TBS (pH 8.5) to produce a 20 μg/mL fibrinogen solution. The solution was added to a 96-well immunoplate at 50 μL/well and was left to stand at 4° C. overnight to prepare a fibrinogen plate. Thrombin diluted to 0.05 NIH U/mL with a thrombin diluent [7 mM L-cysteine (FUJIFILM Wako Pure Chemical Corporation), 1 mM CaCl₂ (FUJIFILM Wako Pure Chemical Corporation), TBS (pH 8.5)] was added to the fibrinogen plate at 100 μL/well and was incubated at 37° C. for 2 hours to prepare a fibrin plate. The plate on which each antigen was immobilized was washed with 200 μL of PBS-T (PBS, 0.5% (v/v) Tween 20) three times, and 200 μL of a blocking solution [PBS-T, 1% (w/v) BSA] were added to each well, followed by being left to stand at room temperature for 1 hour for blocking. The samples serially diluted with PBS were added to the plate at 50 μL/well and were left to stand at room temperature for 1 hour. The solutions were discarded, and the plate was washed with PBS-T three times. A secondary antibody diluted to 0.3 μg/mL with the blocking solution was added to the plate at 50 μL/well, followed by being left to stand at room temperature for 30 minutes. […]

B1: antibody obtained from clone 1101 (antibody, V domains shown)
VH: EVQLQQSGTVLARPGASVKMSCKASGFSFTSYWMHWVKQRPGQGLEWIGAIYPGNSDTRNNQKFKGKAKLTAVTSANTAYMELSSLTNEDSAVYYCTRKAHYGNYGFAYWGQGTLVTVSAA
VL: DIQMTQSSSYLSVSLGGRVTITCKASDHINNWLAWYQQKPGNAPRLLISGATSLETGVPSRFSGSGSGKDYTLSITSLQTEDVATYYCQQYWSTPLTFGAGTKLELKRADAAP
For orientation: Kd means the free concentration of one partner at which half of the binding sites on the other are occupied at equilibrium, for simple one-to-one binding. A low value points to higher affinity. What is called koff is a measure of how fast the partners let go of each other. A lower koff goes with slow dissociation. By kon is commonly meant the rate constant with which the complex forms. Lower therefore signals slow association. Regarding B1, in experiment [1], the Kd amounted to 66.8 nM, the koff was found to be 0.00325 s⁻¹ and the kon was found to be 93700 M⁻¹ s⁻¹.

B2: antibody obtained from clone 99-5 (antibody, V domains shown)
VH: QIQLVQSGPELKKPGETVKISCKASGYTFTNYGMNWVKQAPGKGLKWMGWINTKIGEPTYAEEFKGRFAFSLETSASTAYLQINNLKNEDTATYFCARLLDYWGQGTTLTVSS
VL: DIVLTQSPASLAVSLGQRATISCRASESVDSYGNSFMHWYQQKPGQPPKLLIYRASNLESGIPARFSGSGSRTDFTLTINPVEADDVATYYCQQSNEDPRTFGGGTKLEIKR
notes: also called antibody 99
In the case of B2, the binding result in experiment [2] is “binds”.

B3: antibody obtained from clone 99-5 (antibody, V domains shown)
VH: QIQLVQSGPELKKPGETVKISCKASGYTFTNYGMNWVKQAPGKGLKWMGWINTKIGEPTYAEEFKGRFAFSLETSASTAYLQINNLKNEDTATYFCARLLDYWGQGTTLTVSSAKTTPPSV
VL: GDIVLTQSPASLAVSLGQRATISCRASESVDSYGNSFMHWYQQKPGQPPKLLIYRASNLESGIPARFSGSGSRTDFTLTINPVEADDVATYYCQQSNEDPRTFGGGTKLEIKRADAAPTVS
On to B3, for which, in experiment [1], the Kd was found to be 32.6 nM, the koff was 0.000585 s⁻¹ and the kon turned out to be 18000 M⁻¹ s⁻¹.

B4: antibody obtained from clone 1101 (antibody, V domains shown)
VH: EVQLQQSGTVLARPGASVKMSCKASGFSFTSYWMHWVKQRPGQGLEWIGAIYPGNSDTRNNQKFKGKAKLTAVTSANTAYMELSSLTNEDSAVYYCTRKAHYGNYGFAYWGQGTLVTVSA
VL: DIQMTQSSSYLSVSLGGRVTITCKASDHINNWLAWYQQKPGNAPRLLISGATSLETGVPSRFSGSGSGKDYTLSITSLQTEDVATYYCQQYWSTPLTFGAGTKLELKR
notes: also called antibody 1101
For the molecule B4, the binding result in experiment [2] was “binds”.
